Measured values taken from US20220332804A1 (CSL INNOVATION, published 2022).
Positions count from the first letter of the chain named.

How the values were obtained:
Experiment in all cases: SPR, antibody captured, C2 as analyte;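 also: biacore SPR at 37 °C, anti-C2 mAbs captured via goat anti-human IgG on CM5 chips, double-referenced sensorgrams fit to a 1:1 kinetic or steady-state model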
human C2 E532A = target: T1, human C2 E532A (human, UniProt P06681 21-752)
T1 sequence: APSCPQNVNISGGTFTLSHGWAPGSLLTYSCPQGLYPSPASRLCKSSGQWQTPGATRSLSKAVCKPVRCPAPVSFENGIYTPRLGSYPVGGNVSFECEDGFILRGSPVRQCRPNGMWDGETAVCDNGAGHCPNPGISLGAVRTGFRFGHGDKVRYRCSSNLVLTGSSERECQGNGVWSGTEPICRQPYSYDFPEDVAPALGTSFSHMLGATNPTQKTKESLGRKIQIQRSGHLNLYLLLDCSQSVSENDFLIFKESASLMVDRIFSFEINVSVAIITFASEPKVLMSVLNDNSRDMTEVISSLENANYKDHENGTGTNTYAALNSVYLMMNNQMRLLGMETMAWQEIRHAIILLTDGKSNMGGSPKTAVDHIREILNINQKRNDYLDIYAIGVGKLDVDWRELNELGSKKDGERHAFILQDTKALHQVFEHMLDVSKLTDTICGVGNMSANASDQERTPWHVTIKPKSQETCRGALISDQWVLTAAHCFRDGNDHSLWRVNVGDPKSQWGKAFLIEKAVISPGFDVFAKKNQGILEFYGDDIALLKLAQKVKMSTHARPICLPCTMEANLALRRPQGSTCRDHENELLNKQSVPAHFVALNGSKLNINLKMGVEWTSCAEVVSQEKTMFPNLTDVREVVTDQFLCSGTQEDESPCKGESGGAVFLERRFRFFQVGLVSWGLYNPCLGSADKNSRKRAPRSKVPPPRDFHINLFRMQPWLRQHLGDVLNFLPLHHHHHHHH

human C2 H446A = target: T2, human C2 H446A (human, UniProt P06681 21-752)
T2 sequence: T1 sequence with H426A, A512E

human C2 T317A = target: T3, human C2 T317A (human, UniProt P06681 21-752)
T3 sequence: T1 sequence with T297A, A512E

human C2 M452A = target: T4, human C2 M452A (human, UniProt P06681 21-752)
T4 sequence: T1 sequence with M432A, A512E

B1: RF16-226 (antibody, human IgG4 S228P, lambda)
heavy: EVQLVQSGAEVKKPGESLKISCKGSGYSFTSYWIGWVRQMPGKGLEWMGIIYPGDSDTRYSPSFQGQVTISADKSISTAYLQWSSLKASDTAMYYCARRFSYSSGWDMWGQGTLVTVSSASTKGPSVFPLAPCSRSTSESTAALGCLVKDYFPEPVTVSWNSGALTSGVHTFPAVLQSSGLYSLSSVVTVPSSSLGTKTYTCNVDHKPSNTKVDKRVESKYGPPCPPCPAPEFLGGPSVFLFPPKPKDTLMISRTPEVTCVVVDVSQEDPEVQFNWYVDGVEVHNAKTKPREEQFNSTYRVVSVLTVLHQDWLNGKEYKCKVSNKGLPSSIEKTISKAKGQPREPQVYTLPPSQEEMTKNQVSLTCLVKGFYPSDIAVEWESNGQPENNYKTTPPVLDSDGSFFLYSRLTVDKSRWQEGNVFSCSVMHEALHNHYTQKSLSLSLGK
light: SYELTQPPSVSVSPGQTARITCSGDALTSKYVAWYQQKSGLAPLLVIYEDTRRPSGIPAKFSGSSSGSVATLTISGAHGDDEADYYCYSTDASGHQRVFGGGTKLTVLSQPKAAPSVTLFPPSSEELQANKATLVCLISDFYPGAVTVAWKADGSPVKAGVETTKPSKQSNNKYAASSYLSLTPEQWKSHRSYSCQVTHEGSTVEKTVAPTECS
notes: pH-dependent anti-C2 antibody from a phage display library; also called WT
Human C2 E532A
  Kd: 17.2 nM
Human C2 H446A
  Kd: 16.3 nM
Human C2 T317A
  Kd: 9 nM
Human C2 M452A
  Kd: 4.1 nM
